Data: patent US20110064751A1 (Hoffmann-La Roche, published 2011)

T1: Human TNC-A2 + avi-tag + his6-tag (human, biotinylated in vivo at the avi-tag)
T1 construct: also called hu TNC A2; A2 domain of human tenascin
T1 chain: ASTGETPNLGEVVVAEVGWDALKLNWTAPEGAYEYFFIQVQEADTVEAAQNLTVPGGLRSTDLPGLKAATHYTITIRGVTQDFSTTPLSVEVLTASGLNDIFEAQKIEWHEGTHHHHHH


Experiments:
[1] = biological target: T1, Human TNC-A2 + avi-tag + his6-tag; experiment: SPR (ProteOn XPR36), purified Fab, monovalent binding
Method: Selections were carried out against E. coli expressed human TNC A2 which was cloned upstream an avi-tag and 6×his-tag (see SEQ ID NO: 57 of Table 5). The antigen was biotinylated in vivo upon expression. Selections have been carried out in solution as described for the primary TNC A2 selections using decreasing concentrations of human TNC A2 ranging from 100 to 2 nM. After identification of affinity-matured clones by ELISA, secondary screenings were carried out using a ProteOn XPR36 biosensor (Biorad) and kinetic rate constants and affinities were determined analyzing affinity-purified Fab preparations on the same instrument.

[2] = biological target: T2, Human FAP ectodomain + poly-lys-tag + his6-tag (human, UniProt Q12884 27-760); experiment: first affinity maturation campaign: phage selections, ELISA and BIACORE kinetic screening
T2 construct: also called hu FAP

[3] = biological target: T3, Murine FAP ectodomain + poly-lys-tag + his6-tag (murine, UniProt P97321 27-761); experiment: as above
T3 construct: also called mu FAP

[4] = biological target: T4, DPPIV expressed on HEK293 or CHO cells (Homo sapiens (Human), UniProt P27487 1-766); experiment: binding to DPPIV-expressing HEK293 or CHO cells
T4 construct: also called close homologue of FAP

[5] = biological target: T2, Human FAP ectodomain + poly-lys-tag + …; experiment: SPR (ProteOn XPR36), purified Fab, monovalent binding
[6] = biological target: T3, Murine FAP ectodomain + poly-lys-tag + …; experiment: as above

Binder | Kd [1] [pM] | binding result [2] | binding result [3] | binding result [4] | Kd [5] [pM] | Kd [6] [pM]
2B10_6A12 Fab (Fab, V domains shown, also called clone 2B10-6A12) VH: QVQLVQSGAEVKKPGSSVKVSCKASGGTFSSYAISWVRQAPGQGLEWMGVIIPILGTANYAQKFQGRVTITADKSTSTAYMELSSLRSEDTAVYYCARLYGYAYYGAFDYWGQGTTVTVSS VL: DIQMTQSPSSLSASVGDRVTITCRASQGIRNDLGWYQQKPGKAPKRLIYAASSLQSGVPSRFSGSGSGTEFTLTISSLQPEDFATYYCLQNGLQPATFGQGTKVEIK | 290 | – | – | – | – | –
2B10_O1F7 Fab (Fab, V domains shown, also called clone 2B10_O1F7) VH: QVQLVQSGAEVKKPGSSVKVSCKASGGTFSSYAISWVRQAPGQGLEWMGGIIPIFGTANYAQKFQGRVTITADKSTSTAYMELSSLRSEDTAVYYCARLYGYAYYGAFDYWGQGTTVTVSS VL: DIQMTQSPSSLSASVGDRVTITCRASQGIRNVLGWYQQKPGKAPKRLIYDASSLQSGVPSRFSGGGSGTEFTLTISSLQPEDFATYYCLQNGLQPATFGQGTKVEIK | 56 | – | – | – | – | –
2B10_O7D8 Fab (Fab, V domains shown, also called clone 2B10_O7D8) VH: QVQLVQSGAEVKKPGSSVKVSCKASGGTFSSYAISWVRQAPGQGLEWMGGIIPIFGTANYAQKFQGRVTITADKSTSTAYMELSSLRSEDTAVYYCARLYGYAYYGAFDYWGQGTTVTVSS VL: DIQMTQSPSSLSASVGDRVTITCRASQSIRNVLGWYQQKPGKAPKRLIYDVSSLQSGVPSRFSGGGSGTEFTLTISSLQPEDFATYYCLQNGLQPATFGQGTKVEIK | 147 | – | – | – | – | –
2B10_6H10 Fab (Fab, V domains shown, also called clone 2B10-6H10) VH: QVQLVQSGAEVKKPGSSVKVSCKASGGTFSSYAISWVRQAPGQGLEWMGGIIPIFGTANYAQKFQGRVTITADKSTSTAYMELSSLRSEDTAVYYCARLYGYAYYGAFDYWGQGTTVTVSS VL: DIQMTQSPSSLSASVGDRVTITCRASQGIRNVLGWYQQKPGKAPKRLIQAATSLQSGVPSRFSGGGSGTEFTLTISSLQPEDFATYYCLQNGLQPATFGQGTKVEIK | 810 | – | – | – | – | –
2B10_C3A6 Fab (Fab, V domains shown, also called clone 2B10_C3A6) VH: QVQLVQSGAEVKKPGSSVKVSCKASGGTFSSYAISWVRQAPGQGLEWMGGIIPIFGTANYAQKFQGRVTITADKSTSTAYMELSSLRSEDTAVYYCARLYGYAYYGAFDYWGQGTTVTVSS VL: DIQMTQSPSSLSASVGDRVTITCRASQGIRNVLGWYQQKPGKAPKRLIYDSSSLQSGVPSRFSGGGSGTEFTLTISSLQPEDFATYYCLQNGLQPATFGQGTKVEIK | 497 | – | – | – | – | –
2B10_C3B6 Fab (Fab, V domains shown, also called clone 2B10_C3B6) VH: QVQLVQSGAEVKKPGSSVKVSCKASGGTFSSYAISWVRQAPGQGLEWMGAIIPILGIANYAQKFQGRVTITADKSTSTAYMELSSLRSEDTAVYYCARLYGYAYYGAFDYWGQGTTVTVSS VL: DIQMTQSPSSLSASVGDRVTITCRASQGIRNDLGWYQQKPGKAPKRLIYAASSLQSGVPSRFSGSGSGTEFTLTISSLQPEDFATYYCLQNGLQPATFGQGTKVEIK | 191 | – | – | – | – | –
3F2 Fab (Fab, V domains shown, Fab fragment; also called clone 3F2) VH: not shown VL: EIVLTQSPGTLSLYPGERATLSCRASQSVTSSYLAWYQQKPGQAPRLLINVGSRRATGIPDRFSGSGSGTDFTLTISRLEPEDFAVYYCQQGIMLPPTFGQGTKVEIK | – | binds | binds | – | – | –
28H1 Fab (Fab, V domains shown, also called clone 28H1) VH: EVQLLESGGGLVQPGGSLRLSCAASGFTFSSHAMSWVRQAPGKGLEWVSAIWASGEQYYADSVKGRFTISRDNSKNTLYLQMNSLRAEDTAVYYCAKGWLGNFDYWGQGTLVTVSS VL: EIVLTQSPGTLSLSPGERATLSCRASQSVSRSYLAWYQQKPGQAPRLLIIGASTRATGIPDRFSGSGSGTDFTLTISRLEPEDFAVYYCQQGQVIPPTFGQGTKVEIK | – | – | – | no binding | 200 | 9
4G8 Fab (Fab, V domains shown, Fab fragment; also called clone 4G8) VH: not shown VL: EIVLTQSPGTLSLSPGERATLSCRASQSVSRSYLAWYQQKPGQAPRLLIIGASTRATGIPDRFSGSGSGTDFTLTISRLEPEDFAVYYCQQGQVIPPTFGQGTKVEIK | – | binds | binds | – | – | –
14B3 Fab (Fab, V domains shown, also called clone 14B3) VH: EVQLLESGGGLVQPGGSLRLSCAASGFTFSSYAMSWVRQAPGKGLEWVSAILASGAITYYADSVKGRFTISRDNSKNTLYLQMNSLRAEDTAVYYCAKGWFGGFNYWGQGTLVTVSS VL: EIVLTQSPGTLSLSPGERATLSCRASQSVTSSYLAWYQQKPGQAPRLLINVGSRRATGIPDRFSGSGSGTDFTLTISRLEPEDFAVYYCQQGIMLPPTFGQGTKVEIK | – | – | – | no binding | 377 | 3800
5B8 Fab (Fab, V domains shown, also called clone 5B8) VH: EVQLLESGGGLVQPGGSLRLSCAASGFTFSSYAMSWVRQAPGKGLEWVSAIWGGGRSTYYADSVKGRFTISRDNSKNTLYLQMNSLRAEDTAVYYCAKGWFGGFNYWGQGTLVTVSS VL: EIVLTQSPGTLSLSPGERATLSCRASQSVTSSYLAWYQQKPGQAPRLLINVGSRRATGIPDRFSGSGSGTDFTLTISRLEPEDFAVYYCQQGIMLPPTFGQGTKVEIK | – | – | – | no binding | 690 | 3200
O3C9 Fab (Fab, V domains shown, also called clone O3C9) VH: EVQLLESGGGLVQPGGSLRLSCAASGFTFSSFAMSWVRQSPGKGLEWVSAIIGSGSNTYYADSVKGRFTISRDNSKNTLYLQMNSLRAEDTAVYYCAKGWFGGFNYWGQGTLVTVSS VL: EIVLTQSPGTLSLSPGERATLSCRASQSVTSSYLAWYQQKPGQAPRLLINVGSRRATGIPDRFSGSGSGTDFTLTISRLEPEDFAVYYCQQGIMLPPTFGQGTKVEIK | – | – | – | no binding | 160 | 3700
4B9 Fab (Fab, V domains shown, also called clone 4B9) VH: EVQLLESGGGLVQPGGSLRLSCAASGFTFSSYAMSWVRQAPGKGLEWVSAIIGSGASTYYADSVKGRFTISRDNSKNTLYLQMNSLRAEDTAVYYCAKGWFGGFNYWGQGTLVTVSS VL: EIVLTQSPGTLSLSPGERATLSCRASQSVTSSYLAWYQQKPGQAPRLLINVGSRRATGIPDRFSGSGSGTDFTLTISRLEPEDFAVYYCQQGIMLPPTFGQGTKVEIK | – | – | – | no binding | 157 | 3300
16F8 Fab (Fab, V domains shown, also called clone 16F8) VH: not shown VL: EIVLTQSPGTLSLSPGERATLSCRASQSVTSSYLAWYQQKPGQAPRLLINVGSRRATGIPDRFSGSGSGTDFTLTISRLEPEDFAVYYCQQGIMLPPTFGQGTKVEIK | – | – | – | no binding | 301 | 3800
19G1 Fab (Fab, V domains shown, also called clone 19G1) VH: EVQLLESGGGLVQPGGSLRLSCAASGFTFSSYAMSWVRQAPGKGLEWVSAIISSGGLTYYADSVKGRFTISRDNSKNTLYLQMNSLRAEDTAVYYCAKGWFGGFNYWGQGTLVTVSS VL: EIVLTQSPGTLSLSPGERATLSCRASQSVTSSYLAWYQQKPGQAPRLLINVGSRRATGIPDRFSGSGSGTDFTLTISRLEPEDFAVYYCQQGIMLPPTFGQGTKVEIK | – | – | – | no binding | 76 | 2600
20G8 Fab (Fab, V domains shown, also called clone 20G8) VH: EVQLLESGGGLVQPGGSLRLSCAASGFTFSSYAMSWVRQAPGKGLEWVSAIIGSGSRTYYADSVKGRFTISRDNSKNTLYLQMNSLRAEDTAVYYCAKGWFGGFNYWGQGTLVTVSS VL: EIVLTQSPGTLSLSPGERATLSCRASQSVTSSYLAWYQQKPGQAPRLLINVGSRRATGIPDRFSGSGSGTDFTLTISRLEPEDFAVYYCQQGIMLPPTFGQGTKVEIK | – | – | – | no binding | 69 | 2800
5F1 Fab (Fab, V domains shown, also called clone 5F1) VH: EVQLLESGGGLVQPGGSLRLSCAASGFTFSSYAMSWVRQAPGKGLEWVSAIISSGASTYYADSVKGRFTISRDNSKNTLYLQMNSLRAEDTAVYYCAKGWFGGFNYWGQGTLVTVSS VL: EIVLTQSPGTLSLSPGERATLSCRASQSVTSSYLAWYQQKPGQAPRLLINVGSRRATGIPDRFSGSGSGTDFTLTISRLEPEDFAVYYCQQGIMLPPTFGQGTKVEIK | – | – | – | no binding | 243 | 4100
16F1 Fab (Fab, V domains shown, also called clone 16F1) VH: EVQLLESGGGLVQPGGSLRLSCAASGFTFSSYAMSWVRQAPGKGLEWVSGIIGSGGITYYADSVKGRFTISRDNSKNTLYLQMNSLRAEDTAVYYCAKGWFGGFNYWGQGTLVTVSS VL: EIVLTQSPGTLSLSPGERATLSCRASQSVTSSYLAWYQQKPGQAPRLLINVGSRRATGIPDRFSGSGSGTDFTLTISRLEPEDFAVYYCQQGIMLPPTFGQGTKVEIK | – | – | – | no binding | 193 | 3400
O2D7 Fab (Fab, V domains shown, also called clone O2D7) VH: not shown VL: EIVLTQSPGTLSLSPGERATLSCRASQSVTSSYLAWYQQKPGQAPRLLINVGSRRATGTPDRFSGSGSGTDFTLTISRLEPEDFAVYYCQQAIMLPPTFGQGTKVEIK | – | – | – | no binding | 619 | 8300
